Results as given in PMC6005685 (Journal of molecular recognition : JMR, 2017).

Tests used:
[1] = target: the molecule itself; assay: SEC
[2] = target: the molecule itself; assay: cross-linking

| Protein | stoichiometry N [1] | stoichiometry N [2] |
| --- | --- | --- |
| GST cleaved Grb7RA domain (domain or fragment) GSHVVKVYSEDGACRSVEVAAGATARHVCEMLVQRAHALSDETWGLVECHPHLALERGLEDHESVVEVQAAWPVGGDSRFVFRKNFAK | 2 | 3 |
| 6His-Grb7RA domain (domain or fragment, UniProt Q14451 102-187, looked up) HVVKVYSEDGACRSVEVAAGATARHVCEMLVQRAHALSDETWGLVECHPHLALERGLEDHESVVEVQAAWPVGGDSRFVFRKNFAK | 3 | 2 |
